From patent US20170247475A1 (Boehringer Ingelheim, published 2017) come the findings set out here.

B1: VEGFBII022 (VHH)
chain: EVQLVESGGGLVQTGDSLRLSCEVSGRTFSSYSMGWFRQAQGKEREFVVAISKGGYKYDSVSLEGRFTISKDNAKNTVYLQINSLKPEDTAVYYCASSRAYGSSRLRLADTYEYWGQGTQVTVSSGGGGSGGGSEVQLVESGGGLVQPGGSLRLSCVASGIRFMSMAWYRQAPGKHRELVARISSGGTTAYVDSVKGRFTISRDNSKNTVYLQMNSLKAEDTAVYYCNTFSSRPNPWGAGTQVTVSS
notes: biparatopic bivalent VHH in one chain; also called VEGFBII23B04-9GS-5B05
B2: KLH conjugated VEGF165 (ligand, human, UniProt P15692-4 27-191, looked up)
chain: APMAEGGGQNHHEVVKFMDVYQRSYCHPIETLVDIFQEYPDEIEYIFKPSCVPLMRCGGCCNDEGLECVPTEESNITMQIMRIKPHQGQHIGEMSFLQHNKCECRPKKDRARQENPCGPCSERRKHLFVQDPQTCKCSCKNTDSRCKARQLELNERTCRCDKPRR
modifications: conjugated to mariculture keyhole limpet hemocyanin (mcKLH) with EDC
notes: also called VEGF165-KLH
B3: recombinant mouse VEGF164 (ligand, UniProt Q00731-2 27-190, looked up)
chain: APTTEGEQKSHEVIKFMDVYQRSYCRPIETLVDIFQEYPDEIEYIFKPSCVPLMRCAGCCNDEALECVPTSESNITMQIMRIKPHQSQHIGEMSFLQHSRCECRPKKDRTKPENHCEPCSERRKHLFVQDPQTCKCSCKNTDSRCKARQLELNERTCRCDKPRR
notes: biotinylated in the mVEGFR2 AlphaScreen; also called rmVEGF164; mVEGF164
B4: recombinant human VEGF109 (ligand, UniProt P15692 207-315, looked up)
chain: APMAEGGGQNHHEVVKFMDVYQRSYCHPIETLVDIFQEYPDEIEYIFKPSCVPLMRCGGCCNDEGLECVPTEESNITMQIMRIKPHQGQHIGEMSFLQHNKCECRPKKD
notes: also called rhVEGF109

Assay [1] has as its target T1, recombinant human VEGF121 (human, UniProt P15692-9 27-147).
T1 construct: also called rhVEGF121; hVEGF121
T1 sequence (looked up): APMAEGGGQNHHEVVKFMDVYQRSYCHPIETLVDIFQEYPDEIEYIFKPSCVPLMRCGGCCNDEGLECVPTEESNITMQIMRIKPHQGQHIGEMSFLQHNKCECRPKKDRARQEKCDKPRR
Description: binding ELISA, coated rhVEGF121. The protocol: Binding to recombinant human VEGF121 is assessed via a solid phase binding ELISA. Briefly, recombinant human VEGF121 (R&D Systems, Minneapolis, Minn., USA) is coated overnight at 4° C. at 1 μg/mL in a 96-well MaxiSorp plate (Nunc, Wiesbaden, Germany). Wells are blocked with a casein solution (1% in PBS).

The target of assay [2] is T2, recombinant human VEGF165 (human, UniProt P15692-4 27-191).
T2 construct: also called hVEGF165; rhVEGF165
As to the kind of experiment: ka1; SPR Biacore T100, hVEGF165 on chip, Two State Reaction model. (In general: Surface plasmon resonance follows binding to a sensor surface in real time, without labels.)

For assay [3], the target named is T2, recombinant human VEGF165. As to the kind of experiment: VEGF165/hVEGFR1-Fc competition ELISA. For orientation: An ELISA detects its analyte on a solid surface through an enzyme-linked reagent.
The target of the next assay is T3, human PIGF (human, UniProt P49763-2 21-149, limits assumed).
T3 construct: also called hPIGF; PLGF
T3 sequence (looked up): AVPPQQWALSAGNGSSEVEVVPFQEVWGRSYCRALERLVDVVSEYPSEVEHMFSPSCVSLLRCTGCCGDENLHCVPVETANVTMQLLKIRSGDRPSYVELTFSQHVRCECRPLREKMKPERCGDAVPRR
As to the kind of experiment: binding ELISA on coated PIGF.

For assay [4], the target named is VEGF. Description: cell-based or functional assay.
Assay [5] addresses B3. As to the kind of experiment: mVEGF164/mVEGFR2-hFc competition AlphaScreen. The protocol: Finally, streptavidin donor beads (20 μg/ml) are added and after 1 hour of incubation fluorescence is measured on the Envision microplate reader.
The target in assay [6] is T2, recombinant human VEGF165. As to the kind of experiment: SPR Biacore T100, hVEGF165 on chip, Two State Reaction model.
Assay [7] addresses T2, recombinant human VEGF165. As to the kind of experiment: SPR Biacore T100, Two State Reaction model; KD = kd1/ka1 * (kd2/(kd2 + ka2)).
The target in assay [8] is T2, recombinant human VEGF165. As to the kind of experiment: VEGF165/hVEGFR1-Fc competition AlphaScreen. The protocol: (§1) Finally, streptavidin donor beads (20 μg/ml) are added and after 1 hour of incubation in the dark, fluorescence is measured on the Envision microplate reader.
(In general: In Alpha technology, singlet oxygen from a donor bead excites a nearby acceptor bead.)

For another assay, the target named is T4, human VEGF-B (human, UniProt P49765-2 22-188, limits assumed).
T4 construct: also called hVEGF-B
T4 sequence (looked up): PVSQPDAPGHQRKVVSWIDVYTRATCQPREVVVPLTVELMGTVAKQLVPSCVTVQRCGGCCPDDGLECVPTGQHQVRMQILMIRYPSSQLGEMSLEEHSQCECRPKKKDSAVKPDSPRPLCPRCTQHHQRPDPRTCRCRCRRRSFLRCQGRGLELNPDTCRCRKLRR
Description: binding ELISA on coated VEGFB.

Assay [9] concerns the target T2, recombinant human VEGF165. As to the kind of experiment: hVEGF165/hVEGFR2-Fc competition AlphaScreen. The protocol: as §1
For the next assay, the target named is T5, human VEGF-D (human, UniProt O43915 93-201).
T5 construct: also called hVEGF-D
T5 sequence (looked up): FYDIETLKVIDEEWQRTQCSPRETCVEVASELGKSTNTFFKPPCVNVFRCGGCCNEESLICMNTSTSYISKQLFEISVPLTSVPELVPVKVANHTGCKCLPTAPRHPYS
Description: binding ELISA on coated VEGF D. On the procedure:
Binding to VEGFB, VEGFC, VEGFD and PIGF is assessed via a solid phase binding ELISA. In brief, VEGFB, VEGFC, VEGFD and PIGF (R&D Systems, Minneapolis, Minn., USA) are coated overnight at 4° C. at 1 μg/mL in a 96-well MaxiSorp plate (Nunc, Wiesbaden, Germany). Wells are blocked with a casein solution (1% in PBS). […] As positive controls serial dilutions of the appropriate receptors are taken along and detected with horseradish peroxidase (HRP)-conjugated goat anti-human IgG, Fc specific antibody (Jackson Immuno Research Laboratories Inc., West Grove, Pa., USA) and a subsequent enzymatic reaction in the presence of the substrate TMB (3,3′,5,5′-tetramentylbenzidine) (Pierce, Rockford, Ill., USA).

Assay [10] concerns the target T2, recombinant human VEGF165. As to the kind of experiment: VEGF/VEGFR1 competition AlphaScreen. On the procedure: as §1
Assay [11] deals with VEGF. As to the kind of experiment: cell-based or functional assay. The source holds these as a separate data set.
A further assay concerns the target T6, human VEGF-C (human, UniProt P49767 103-227).
T6 construct: also called hVEGF-C
T6 sequence (looked up): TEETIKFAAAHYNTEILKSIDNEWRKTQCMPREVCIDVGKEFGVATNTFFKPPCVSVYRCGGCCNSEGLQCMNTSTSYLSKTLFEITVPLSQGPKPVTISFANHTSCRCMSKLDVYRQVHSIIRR
Description: binding ELISA on coated VEGFC.

Assay [12] deals with B3. Description: binding ELISA, coated rmVEGF164. The protocol: Cross-reactivity to mouse VEGF164 is determined using a binding ELISA. […] Wells are blocked with a casein solution (1% in PBS). […] A mouse VEGF164 reactive mAb is included as positive control.
The target in assay [13] is T2, recombinant human VEGF165. As to the kind of experiment: binding ELISA, coated rhVEGF165.
For assay [14], the target named is T2, recombinant human VEGF165. As to the kind of experiment: hVEGF165/hVEGFR2-Fc competition ELISA.
The target in assay [15] is T2, recombinant human VEGF165. Description: kd1; SPR Biacore T100, hVEGF165 on chip, Two State Reaction model.
Assay [16] deals with T2, recombinant human VEGF165. As to the kind of experiment: VEGF/VEGFR2 competition AlphaScreen. The protocol:
as §1

Assay [17] has as its target T7, human VEGFR1-Fc chimera (human, UniProt P17948 27-756).
T7 construct: bought (R&D Systems); also called hVEGFR1-Fc
As to the kind of experiment: ELISA, coated KLH conjugated VEGF165.

The next assay concerns the target T8, mouse VEGFR2-huFc (mouse, UniProt P35918 20-762, limits assumed).
T8 construct: also called mVEGFR2-huFc; mVEGFR2-hFc
Description: mVEGF164/mVEGFR2-hFc competition AlphaScreen, unlabelled mVEGF164 as competitor.

For a further assay, the target named is T9, human VEGFR2-Fc chimera (human, UniProt P35968 20-764).
T9 construct: bought (R&D Systems); also called hVEGFR2-Fc; VEGFR2-huFc
T9 sequence (P35968 20-764, change not shown): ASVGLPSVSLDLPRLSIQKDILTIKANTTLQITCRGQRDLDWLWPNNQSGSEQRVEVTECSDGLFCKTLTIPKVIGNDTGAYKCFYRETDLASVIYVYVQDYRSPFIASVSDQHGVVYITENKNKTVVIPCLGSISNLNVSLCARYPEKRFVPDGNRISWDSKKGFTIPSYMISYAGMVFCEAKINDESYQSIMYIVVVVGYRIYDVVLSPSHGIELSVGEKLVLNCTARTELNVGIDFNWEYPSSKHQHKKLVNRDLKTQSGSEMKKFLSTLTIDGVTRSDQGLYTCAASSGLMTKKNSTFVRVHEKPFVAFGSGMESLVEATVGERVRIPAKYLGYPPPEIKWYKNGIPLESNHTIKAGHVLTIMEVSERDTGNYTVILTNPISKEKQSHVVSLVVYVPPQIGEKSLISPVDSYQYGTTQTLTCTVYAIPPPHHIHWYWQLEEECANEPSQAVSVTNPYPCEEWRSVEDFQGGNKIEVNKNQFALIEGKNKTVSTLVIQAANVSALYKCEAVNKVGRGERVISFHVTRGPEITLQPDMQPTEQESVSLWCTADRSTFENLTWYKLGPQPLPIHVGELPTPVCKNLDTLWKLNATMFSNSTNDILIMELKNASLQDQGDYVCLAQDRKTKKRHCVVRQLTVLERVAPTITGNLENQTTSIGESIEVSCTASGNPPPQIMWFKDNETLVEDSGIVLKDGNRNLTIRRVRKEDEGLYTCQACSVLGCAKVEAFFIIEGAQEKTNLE
Description: ELISA, coated VEGF109. On the procedure: (§2) Expression is induced by addition of 1 mM IPTG and allowed to continue for 4 hours at 37° C. Cells are harvested by centrifugation and lysed by sonication of the cell pellet. Inclusion bodies are isolated by centrifugation. […] The refolded protein is purified by ion exchange chromatography using a MonoQ5/50GL (Amersham BioSciences) column followed by gel filtration with a Superdex75 10/300 GL column (Amersheim BioSciences). […] To this end, 1 μg/mL of recombinant human VEGF109 is immobilized overnight at 4° C. in a 96-well MaxiSorp plate (Nunc, Wiesbaden, Germany). Wells are blocked with a casein solution (1%).

For assay [18], the target named is T7, human VEGFR1-Fc chimera. Description: ELISA, coated VEGF109. On the procedure:
as §2

T7 sequence (P17948 27-756, change not shown): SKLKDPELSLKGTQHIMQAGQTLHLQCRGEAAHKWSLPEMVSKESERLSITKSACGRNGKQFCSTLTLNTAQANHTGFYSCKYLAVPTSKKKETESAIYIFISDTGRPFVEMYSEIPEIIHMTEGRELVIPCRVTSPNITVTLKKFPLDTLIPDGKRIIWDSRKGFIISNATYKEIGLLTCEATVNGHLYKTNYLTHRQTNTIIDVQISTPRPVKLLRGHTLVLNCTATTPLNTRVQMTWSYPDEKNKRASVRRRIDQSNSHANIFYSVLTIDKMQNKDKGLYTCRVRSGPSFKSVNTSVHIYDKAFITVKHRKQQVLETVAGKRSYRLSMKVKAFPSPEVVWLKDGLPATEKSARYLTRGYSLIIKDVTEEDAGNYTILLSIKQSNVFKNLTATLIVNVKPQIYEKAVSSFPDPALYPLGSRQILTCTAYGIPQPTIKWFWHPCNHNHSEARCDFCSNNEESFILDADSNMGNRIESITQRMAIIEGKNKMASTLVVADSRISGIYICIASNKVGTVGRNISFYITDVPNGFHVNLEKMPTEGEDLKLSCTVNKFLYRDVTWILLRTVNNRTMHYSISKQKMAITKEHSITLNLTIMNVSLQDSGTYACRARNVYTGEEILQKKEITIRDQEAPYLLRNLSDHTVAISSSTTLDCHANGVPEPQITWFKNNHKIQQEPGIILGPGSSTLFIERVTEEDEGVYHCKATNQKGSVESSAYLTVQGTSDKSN
T8 sequence (P35918 20-762 limits assumed): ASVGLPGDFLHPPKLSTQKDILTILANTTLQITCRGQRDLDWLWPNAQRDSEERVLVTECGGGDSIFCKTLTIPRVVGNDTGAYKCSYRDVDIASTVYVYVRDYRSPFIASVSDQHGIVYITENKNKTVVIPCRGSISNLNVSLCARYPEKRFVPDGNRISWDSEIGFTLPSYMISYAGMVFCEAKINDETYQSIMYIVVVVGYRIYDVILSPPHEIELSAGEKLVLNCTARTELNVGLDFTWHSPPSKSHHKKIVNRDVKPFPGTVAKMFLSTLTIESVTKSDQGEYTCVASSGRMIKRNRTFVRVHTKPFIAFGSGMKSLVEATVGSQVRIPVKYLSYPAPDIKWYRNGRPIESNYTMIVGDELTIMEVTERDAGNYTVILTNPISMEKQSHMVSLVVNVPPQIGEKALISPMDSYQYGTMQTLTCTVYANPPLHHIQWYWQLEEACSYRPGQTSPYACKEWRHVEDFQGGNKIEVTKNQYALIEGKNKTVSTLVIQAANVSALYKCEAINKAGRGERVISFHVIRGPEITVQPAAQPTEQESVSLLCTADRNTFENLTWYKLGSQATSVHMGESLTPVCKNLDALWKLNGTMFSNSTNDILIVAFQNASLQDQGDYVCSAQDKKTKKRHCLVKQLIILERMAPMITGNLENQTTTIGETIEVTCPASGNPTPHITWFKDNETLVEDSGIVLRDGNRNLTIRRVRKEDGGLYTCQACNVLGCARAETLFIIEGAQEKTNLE

In the case of B1, the values for the EC50 in assay [1], in assay [12] and in assay [13] were 0.54 nM, 0.464 nM and 0.224 nM, respectively. For the same molecule, the kon in assay [2] came out at 1.2e+06 M⁻¹ s⁻¹. Further, the “% inhibition” value in assay [3] was 89%; in assay [8] it was 98%; in assay [9], 100%; in assay [10], 100%; in [14] it was 100%. The half-maximal inhibitory concentration (IC50) in assay [3] amounted to 0.225 nM; in assay [5], 108 nM; in assay [8], 0.009 nM; in assay [9], 0.007 nM; in assay [10], 0.008 nM; in assay [14], 0.164 nM. Besides, the IC50 in assay [16] is 0.007 nM. The binding result with human PIGF, with human VEGF-B, with human VEGF-D and in the assay with human VEGF-C was “no binding (tested: 5e-7 M)” in each case. Also, the “% inhibition, VEGF HUVEC proliferation assay” value with VEGF [4] is 100%. Also, the “IC50 (nM), VEGF HUVEC proliferation assay” value with VEGF [4] came out at 0.34 nM. Moreover, the ka2 in [6] came out at 0.014 s⁻¹. Besides, the kd2 in assay [6] turned out to be 0.00026 s⁻¹. The dissociation constant (Kd) in assay [7] is 0.14 nM. In addition, in the assay with VEGF [11], the “% inhibition, VEGF HUVEC Erk phosphorylation assay” value is 94%. The “IC50 (nM), VEGF HUVEC Erk phosphorylation assay” value in the assay with VEGF [11] came to 0.18 nM. In addition, the off-rate constant (koff) in assay [15] came out at 0.0091 s⁻¹.

Consider B2, for which, in the assay with human VEGFR1-Fc chimera [17], the binding result is listed as “binds”.

As for B3, the IC50 with mouse VEGFR2-huFc is 0.05 nM.

With B4, the binding result with human VEGFR2-Fc chimera and with human VEGFR1-Fc chimera [18] was “binds” each time.

Usually EC50 stands for the concentration giving half of the maximal effect. The kon is the second-order rate constant of association. In general, % inhibition refers to how much of the control response was suppressed. By IC50 is commonly meant the concentration that inhibits the measured activity by half. One may read the Kd as the free concentration of one partner at which half of the binding sites on the other are occupied at equilibrium, for simple one-to-one binding. In general, koff refers to the first-order rate constant of dissociation.
